Earlier results, collected in publication PMC3089900.

Target: His276 (UniProt position 276, SEELDHALNDM)
Assay: NMR
Conditions: in the presence of troponin T fragment TnT1

alpha-tropomyosin (striated muscle alpha-Tm) (Oryctolagus cuniculus (inferred; the article's alpha-Tm sequence discussion and preparations are rabbit))
pKa: 7.27−7.98
